{"source": "paper PMC3816843", "binders": {"B1": {"name": "R4cXII-1t (XNA)", "RNA": "GGCUCGGCUGCCAGCAGGUCACGAGUCGCAGCGACUCGCUGAGGAUCCGAG", "modifications": "all C and U are 2'-fluoro; A and G ribo"}, "B2": {"name": "scrambled control RNA (XNA)", "RNA": "GGGGCAGCCGUGGACCGACUGCCGCAUGCCAUUGACAGUCCGAUGCCAGGC", "modifications": "all C and U are 2'-fluoro; A and G ribo"}, "B3": {"name": "R4cXII-1 (XNA)", "RNA": "GGGAGGACGAUGCGGCCAAAUCUCGGCUGCCAGCAGGUCACGAGUCGCAAGAUAACAGACGACUCGCUGAGGAUCCGAGA", "modifications": "all C and U are 2'-fluoro; A and G ribo"}}, "key": {"[1]": {"biological_target": "T1, Factor XII (FXII, zymogen) (human, UniProt P00748 20-615)", "T1 sequence": "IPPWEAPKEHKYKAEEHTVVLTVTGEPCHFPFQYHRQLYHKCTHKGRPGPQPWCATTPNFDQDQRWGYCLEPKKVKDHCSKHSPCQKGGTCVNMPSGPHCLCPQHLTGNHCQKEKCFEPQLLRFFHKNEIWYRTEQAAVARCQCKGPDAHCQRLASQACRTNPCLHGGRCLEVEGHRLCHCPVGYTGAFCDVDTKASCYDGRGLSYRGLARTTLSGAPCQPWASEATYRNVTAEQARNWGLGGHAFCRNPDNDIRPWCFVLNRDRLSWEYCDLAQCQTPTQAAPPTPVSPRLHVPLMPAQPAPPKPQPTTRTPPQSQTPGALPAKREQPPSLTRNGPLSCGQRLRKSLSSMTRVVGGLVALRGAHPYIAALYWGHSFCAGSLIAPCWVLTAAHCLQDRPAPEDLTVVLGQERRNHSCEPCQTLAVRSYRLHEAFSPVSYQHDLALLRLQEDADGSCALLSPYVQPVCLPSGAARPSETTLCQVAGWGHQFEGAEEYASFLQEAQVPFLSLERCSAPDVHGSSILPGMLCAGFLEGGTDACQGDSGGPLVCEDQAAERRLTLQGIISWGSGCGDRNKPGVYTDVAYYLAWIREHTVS", "test": "double-filter nitrocellulose binding"}, "[2]": {"biological_target": "T2, Factor XIIa (alpha-FXIIa) (UniProt P00748;P00748 20-372;373-615)", "T2 sequence 1": "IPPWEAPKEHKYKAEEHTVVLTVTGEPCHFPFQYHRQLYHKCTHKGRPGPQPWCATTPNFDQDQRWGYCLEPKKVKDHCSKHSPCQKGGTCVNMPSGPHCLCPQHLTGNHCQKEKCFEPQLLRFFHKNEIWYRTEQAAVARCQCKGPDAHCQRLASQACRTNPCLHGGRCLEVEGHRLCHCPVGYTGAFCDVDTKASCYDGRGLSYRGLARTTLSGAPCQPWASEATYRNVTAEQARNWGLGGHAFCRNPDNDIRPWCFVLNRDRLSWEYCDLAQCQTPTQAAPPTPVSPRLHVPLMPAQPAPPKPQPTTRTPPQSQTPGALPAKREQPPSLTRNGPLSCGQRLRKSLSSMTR", "T2 sequence 2": "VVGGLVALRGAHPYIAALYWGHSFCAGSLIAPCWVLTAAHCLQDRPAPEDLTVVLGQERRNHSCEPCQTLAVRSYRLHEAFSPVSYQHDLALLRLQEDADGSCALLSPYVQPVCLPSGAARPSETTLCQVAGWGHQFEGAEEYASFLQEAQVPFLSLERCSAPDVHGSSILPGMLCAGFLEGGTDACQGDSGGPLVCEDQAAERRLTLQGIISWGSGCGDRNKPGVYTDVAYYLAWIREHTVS", "test": "double-filter nitrocellulose binding"}, "[3]": {"biological_target": "T1, Factor XII (FXII, zymogen)", "test": "nitrocellulose filter binding"}, "[4]": {"biological_target": "T2, Factor XIIa (alpha-FXIIa)", "test": "nitrocellulose filter binding"}, "[5]": {"biological_target": "T2, Factor XIIa (alpha-FXIIa)", "test": "double-filter nitrocellulose binding", "remark": "listed apart in the source"}, "[6]": {"biological_target": "T1, Factor XII (FXII, zymogen)", "test": "double-filter nitrocellulose binding", "remark": "listed apart in the source"}}, "note": "Like-named read-outs stand apart in the source and are kept apart here."}
{"binder": "B1", "values": [{"measurement": "Kd", "setting": "[1]", "value": "12.9 ± 2.06", "unit": "nM"}, {"measurement": "Kd", "setting": "[2]", "value": "0.4 ± 0.02", "unit": "nM"}]}
{"binder": "B2", "values": [{"measurement": "binding result", "setting": "[3]", "value": "no binding"}, {"measurement": "binding result", "setting": "[4]", "value": "no binding"}]}
{"binder": "B3", "values": [{"measurement": "Kd", "setting": "[5]", "value": "0.5 ± 0.2", "unit": "nM"}, {"measurement": "Kd", "setting": "[6]", "value": "8.9 ± 1", "unit": "nM"}]}
